Laboratory results from paper PMC3338718, “Characterization of a Novel ArsR-Like Regulator Encoded by Rv2034 in Mycobacterium tuberculosis”.

Legend:
[1] = molecular target: T1, Rv2034 (ArsR family regulator) (Mycobacterium tuberculosis) (UniProt O53478); assay: DNase I footprinting
T1 sequence: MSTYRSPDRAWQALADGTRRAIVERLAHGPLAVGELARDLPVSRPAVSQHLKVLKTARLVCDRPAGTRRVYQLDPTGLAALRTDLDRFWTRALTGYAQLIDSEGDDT

[2] = molecular target: T1, Rv2034 (ArsR family regulator) (Mycobacterium tuberculosis); assay: EMSA
[3] = molecular target: T2, Rv2034ΔN28 del1-28 (Mycobacterium tuberculosis) (UniProt O53478); assay: EMSA
T2 sequence: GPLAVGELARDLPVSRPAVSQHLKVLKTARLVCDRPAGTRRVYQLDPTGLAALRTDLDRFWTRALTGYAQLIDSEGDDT

[4] = molecular target: T1, Rv2034 (ArsR family regulator) (Mycobacterium tuberculosis); assay: competition
[5] = molecular target: T3, Rv2034 (ArsR family regulator) (Mycobacterium tuberculosis, UniProt O53478 1-107); assay: EMSA; 0.1-1.2 uM protein; details: protein: recombinant; tags: N-terminal His6 (pET28a); chain copies: 2; label: 5' label (32P or FITC); blunt
T3 sequence: T1 sequence

In the case of “GATAGAATTCTACCAGTCGACTTTCCGGCGGGCCAACGTCGCCAACCGATACTCGGCTCCAACGCCATGGGTGACGGGATGCCCGGATCACGTGTCACACCACCCGCGCACCCTTGCGGAAGAATATCCGTAAGTCTAAACTTACGGTTCGTGTCCACTTACAGATCACCGGATCGCGCTTGGCAGGCGCTGGCGGACGGCACTCGCCGGGCCATCGTGGAGCGGCTGGCGCATCTAGATGTC (double strand) [Rv2034p footprint fragment]”, the binding [1] is reported as “binds”.

In the case of “AATTTCTAGAGCCTGCGGCAAGCACGTCGGTTCCATAGCGATCCAGCACGCCGCAATACTAGGGAGCCTCTCTGCCGGTCATCGCCGCGACGCGCCGCATGGGTTCTCGGAAAATGCTTGTACCAGTCGACTTTCCGGCGGGCCAACGTCGCCAACCGATACTCGGCTCCAACGCCATGGGTGACGGGATGCCCGGATCACGTGTCACACCACCCGCGCACCCTTGCGGAAGAATATCCGTAAGTCTAAACTTACGGTTCGAATTCCCGG (double strand) [Rv2034p promoter]”, the binding [2] is reported as “binds”, the binding [3] is reported as “no binding” and the binding [4] is reported as “binds”.

In the case of “ACTGTCTAGAGTTGGCGCATGTACACCTGAGCCGTCGGCTCGCCCACTGGACCCGGCTCTACCCCGAGGTGCGGGTGGATCGGGCCATCGCCGGCGGCAGTGCGTGCCGTCATCTGGCCGCCAACGCAAAGCCGGGTCAGCTGTTCGTCGCGGACTCACACTCCGCGCACGAATTGTGCGGTGCATACCAGCCCGGATGCGCCGTACTTACGGTACGCAGTGCCAACTTGTAGGGAGCGGATCTTGGGAGTGGTGCCCTGGAATTCATCT (double strand) [Rv3133cp (dosR promoter)]”, the binding [2] is reported as “binds”.

B1: Rv2034BSwt (dsDNA)
DNA 1: GGAAGAATATCCGTAAGTCTAAACTTACGGTTCGTGTCCA
DNA 2: TGGACACGAACCGTAAGTTTAGACTTACGGATATTCTTCC
B1: binds [5].
